Where no end group is shown, it is not given here.

Experimental findings from patent US8889620B2, “Pharmaceutical compositions comprising peptide antagonists of vascular endothelial growth factor” (Children's Medical Center Corporation, priority 1997, dated 2014) are described below.

Experiment [1] concerns the target T1, KDR/Flk-1 and VEGF165R on HUVEC (Homo sapiens, UniProt O14786).
T1 construct: HUVEC, which express both KDR/Flk-1 and VEGF165R; endogenous in cells; host or cells: HUVEC (ATCC)
As to the kind of experiment: Inhibition of 125I-VEGF165 binding to HUVEC. As to conditions: 125I-VEGF165 5 ng/ml, increasing concentrations of fusion protein, FIG. 3A. On the procedure:
FIGS. 3A-3C. Inhibition of ^125I-VEGF165 binding to HUVEC, MDA MB 231 cells, and PAE-KDR cells by GST-EX 7+8. ^125I-VEGF165 (5 ng,/ml) was bound to subconfluent cultures of HUVEC (3A), MDA MB 23 1 cells (3B), and PAE-KDR cells (3C) in 48-well dishes in the presence of increasing amounts of GST-Ex 7+8 (closed 20 square) or control GST protein (open squares). At the end of a 2-h incubation, the cells were washed and lysed, and the cell-associated radioactivity was determined with a γ-counter. The counts obtained are expressed as the percentage of the counts obtained in the presence of PBS without addition of GST or fusion protein.
FIGS. 5A and 5B. Localization of a core inhibitory region within exon 7. GST-Ex 7 fusion proteins containing full-length exon 7-encoded domain or truncations at the N-terminal and C-terminal ends were prepared as described in the Examples. ^125I-VEGF165 (5 ng/ml) was bound to subconfluent HUVEC cultures as described in FIG. 3, in the presence of increasing concentrations of the GST fusion proteins. At the end of a 2-h incubation, the cells were washed and lysed, and the cell-associated radioactivity was determined with a y counter. The counts obtained are expressed as percentage of the counts obtained in the presence of PBS without fusion protein B, the amino acid sequences of VEGF exon 7 derivatives. These derivatives were prepared to contain the first cysteine residue of exon 8 at their C termini to keep an even number of cysteine residue. FIG. 5B discloses SEQ ID NO: 19.
(§1) Binding and cross-linking experiments using 125I-VEGF165 and 125I-VEGF121 were performed at described previously (Gitay-Goren, et al., J. Biol. Chem., 287, 6003-6096 (1992), Soker, et al., J: Biol. Chem., 271,5761-5767 (1996)). VEGF binding was quantified by measuring the cell-associated radioactivity in a y-counter (Beckman, Gamma 5500). The counts represent the average of three walls. All experiments were repeated at least three times, and similar results were obtained. 125I-VEGF cross-linked complexes were resolved by 6% SDS-PAGE, and the gels were exposed to a phosphor screen and scanned after 24 h by a PhosphorImager (Molecular Dynamics). Subsequently, the gels were exposed to x-ray film.

The target in experiment [2] is T2, VEGF165R (Homo sapiens, UniProt O14786). As to the kind of experiment: Cross-linking of 125I-VEGF165 to VEGF165R on HUVEC. Type of experiment: binding. Details: HUVEC, which express both KDR/Flk-1 and VEGF165R; endogenous in cells; host or cells: HUVEC (ATCC). As to conditions: 15 ug/ml fusion protein, FIG. 4 lane 2. On the procedure:
FIG. 4. GST-EX 7+8 fusion protein inhibits cross-linking of ^125I-VEGF165 to ^125I-VEGF165R and to KDR/Flk-1. ^125I-VEGF165 (5 ng/ml) was bound to subconfluent cultures of HUVEC (lanes 1 and 2) and MDA-MB-23 1 cells (lanes 3 and 4) in 6-cm dishes. The binding was carried out in the presence (lanes 2 and 4) or the absence (lanes 1 and 3) of 15 ug/ml GST-Ex 7+8. Heparin (1 ug/ml) was added to each dish. At the end of a 2-h incubation, ^125I-VEGF165 was chemically cross-linked to the cell surface. The cells were lysed, and proteins were resolved by 6% SDS-PAGE. The gel was dried and exposed to x-ray film.
as §1

Experiment [3] has as its system VEGF165-induced proliferation of HUVEC. As to the kind of experiment: Inhibition of VEGF165-stimulated HUVEC proliferation. Type of experiment: cell-based, human. On the procedure: FIG. 6. GST-Ex 7+8 fusion protein inhibits VEGF165-stimulated HUVEC proliferation. HUVEC were cultured in 96-well dishes (5,000 cell/well) as in FIG. 2. Increasing concentrations of VEGF165 (open circles), together with 15 ug/ml GST-Ex 7+8 (closed circles) or 25 ug/ml GST (squares), were added to the medium, and the cells were incubated for 4 more days. DNA synthesis was measured in HUVEC as described in FIG. 2. The results represent the average counts of three wells, and the standard deviations were determined.
FIG. 7. GST-Ex 7+8 fusion protein inhibits VEGF165 and VEGF121-stimulated HUVEC proliferation. Increasing concentration of VEGF165 (circles) or VEGF121 (square) with 15 ug/ml GST-Ex 7+8 (closed symbols) or without GST-Ex 7+8 (open symbols) were added to HUVEC, and [*H]thymidine incorporation into the DNA was measured as in FIG. 2. The results represent the average counts of three wells and the standard deviations were determined.
HUVEC were seeded in gelatin-coated 96-well dishes at 4,000 cells/200 Ul/well in M-199 containing 5% FCS and GPS. After 24 H, VEGF isoforms and VEGF exon 7-GST fusion proteins were added to the wells at the same time. The cells were incubated for 72 h, and [3H]thymidine (1 pC/ml) was added for 10-12 h. The medium was aspirated, and the cells were trypsinized and harvested by an automatic cell harvester (TOMTEC) and loaded onto Filtermats (Wallac). The Filtermats were scanned and cpm were determined by a MicroBeta counter (Wallac). The results represent the average of samples assayed in triplicate, and the standard derivations were determined. All experiments were repeated at least three times and similar results were obtained.

Experiment [4] addresses T2, VEGF165R. As to the kind of experiment: Direct binding/cross-linking of 125I-GST-Ex 7 to HUVEC: VEGF165R. To be noted: cross-linking, 1 ug/ml heparin, FIG. 1 lane 3. Details: HUVEC, which express both KDR/Flk-1 and VEGF165R; endogenous in cells; host or cells: HUVEC (ATCC). The method, then:
FIG. 1. Cross-linking of 1 ^125I-VEGF165, ^125I-VEGF121 and ^125I-GST-EX 7 to HUVEC. ^125I-VEGF165 (5 ng/ml) (lane 1) or ^125I-VEGF121 (10 ng/ml) (lane 2) or ^125I-GST-EX 7 (50 nglml) (lane 3) were bound to subconfluent cultures of HUVEC in 6-cm dishes. The binding was carried out in the presence of 1 ug/ml heparin. At the end of a 2-H incubation, each ^125I-VEGF isoform was chemically cross-linked to the cell surface. The cells were lysed and proteins were resolved by 6% SDS-PAGE. The polyacrylamide gel was dried and exposed to x-ray film.
as §1

T2 sequence (O14786 22-923): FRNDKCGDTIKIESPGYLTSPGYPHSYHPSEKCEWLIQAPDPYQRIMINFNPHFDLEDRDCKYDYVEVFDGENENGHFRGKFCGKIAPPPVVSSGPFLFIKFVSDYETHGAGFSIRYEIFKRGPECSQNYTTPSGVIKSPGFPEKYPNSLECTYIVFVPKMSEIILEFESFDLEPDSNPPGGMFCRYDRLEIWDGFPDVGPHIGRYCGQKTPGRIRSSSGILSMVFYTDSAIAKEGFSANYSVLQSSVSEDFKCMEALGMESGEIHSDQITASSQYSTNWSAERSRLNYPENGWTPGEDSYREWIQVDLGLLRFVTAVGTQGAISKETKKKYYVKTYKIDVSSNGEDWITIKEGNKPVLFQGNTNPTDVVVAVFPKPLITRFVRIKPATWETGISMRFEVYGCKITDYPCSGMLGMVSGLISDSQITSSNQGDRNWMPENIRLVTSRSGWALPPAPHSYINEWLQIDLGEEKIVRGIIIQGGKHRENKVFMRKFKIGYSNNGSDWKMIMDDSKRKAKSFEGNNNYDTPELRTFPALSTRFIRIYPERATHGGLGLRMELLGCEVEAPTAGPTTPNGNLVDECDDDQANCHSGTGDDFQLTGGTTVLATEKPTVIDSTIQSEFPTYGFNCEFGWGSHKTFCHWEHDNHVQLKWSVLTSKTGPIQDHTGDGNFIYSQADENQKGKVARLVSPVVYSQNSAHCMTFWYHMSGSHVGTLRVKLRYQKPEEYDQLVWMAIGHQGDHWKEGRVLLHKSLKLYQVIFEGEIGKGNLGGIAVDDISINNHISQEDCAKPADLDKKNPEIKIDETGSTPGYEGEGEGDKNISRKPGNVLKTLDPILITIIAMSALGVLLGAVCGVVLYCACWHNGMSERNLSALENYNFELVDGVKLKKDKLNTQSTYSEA
T1 sequence (O14786 22-923): as above

As to “GST-Ex 7+8: GST fusion protein containing the peptide encoded by VEGF165 exons 7 and 8 (PCGPCSERRKHLFVQDPQTCKCSCKNTDSRCKARQLELNERTCRCDKPRR; cysteine pairing not given here; also: GST fusion protein, side of fusion not given here)”, the “inhibition of 125I-VEGF165 binding to HUVEC” value in experiment [1] is 85-95%. In addition, the “formation of 165-175-kDa 125I-VEGF165/VEGF165R cross-linked complexes on HUVEC (in words)” value in the experiment with VEGF165R [2] is on record as “markedly inhibited”. Besides, the “reduction of VEGF165-induced HUVEC proliferation” value in experiment [3] (15 ug/ml fusion protein added with VEGF165, FIG. 6) was “about 60%”. Moreover, the “inhibition of the level of VEGF165-induced mitogenicity” value in experiment [3] (FIG. 7, 15 ug/ml) is listed as “about 2 fold”. Further, the “direct binding to VEGF165R on HUVEC (in words)” value with VEGF165R [4] was “binds”.
